The target of the experiment is human LGR4 (residues 25–833), called full-length LGR4 (human, UniProt Q9BXB1 25-833). As to the kind of experiment: cryo-EM structure.

As usually defined, the stoichiometry N is the number of molecules, sites or subunits per partner or assembly.

B1: RSPO2(FU), FU domain of RSPO2 (residues 37–143) (domain or fragment)
chain: NPICKGCLSCSKDNGCSRCQQKLFFFLRREGMRQYGECLHSCPSGYYGHRAPDMNRCARCRIENCDSCFSKDFCTKCKVGFYLHRGRCFDECPDGFAPLEETMECVE
On to B1, for which the “stoichiometry N” value turned out to be 1.
